{
  "source": "patent US20120052092A1",
  "about": "(published 2012)",
  "binders": {"B1": {"name": "FH678 (other)", "chain": "TLKPCDYPDIKHGGLYHENMRRPYFPVAVGKYYSYYCDEHFETPSGSYWDHIHCTQDGWSPAVPCLRKCYFPYLENGYNQNYGRKFVQGKSIDVACHPGYALPKAQTTVTCMENGWSPTPRCIRVKTCSKSSIDIENGFISESQYTYALKEKAKYQCKLGYVTADGETSGSITCGKDGWSAQPTCIKSC"}, "B2": {"name": "fH67 (CCPs 6 and 7 of factor H) (other)", "chain": "TLKPCDYPDIKHGGLYHENMRRPYFPVAVGKYYSYYCDEHFETPSGSYWDHIHCTQDGWSPAVPCLRKCYFPYLENGYNQNYGRKFVQGKSIDVACHPGYALPKAQTTVTCMENGWSPTPRCI"}, "B3": {"name": "fHbp (other)", "chain": "CSSGGGGVAADIGAGLADALTAPLDHKDKGLQSLTLDQSVRKNEKLKLAAQGAEKTYGNGDSLNTGKLKNDKVSRFDFIRQIEVDGQLITLESGEFQVYKQSHSALTAFQTEQIQDSEHSGKMVAKRQFRIGDIAGEHTSFDKLPEGGRATYRGTAFGSDDAGGKLTYTIDFAAKQGNGKIEHLKSPELNVDLAAADIKPDGKRHAVISGSVLYNQAEKGSYSLGIFGGKAQEVAGSAEVKTVNGIRHIGLAAKQ"}, "B4": {"name": "FH67 (other)", "chain": "B2 chain"}, "B5": {"name": "Factor H Domains 5, 6 and 7 (other)", "chain": "KSCDNPYIPNGDYSPLRIKHRTGDEITYQCRNGFYPATRGNTAKCTSTGWIPAPRCTLKPCDYPDIKHGGLYHENMRRPYFPVAVGKYYSYYCDEHFETPSGSYWDHIHCTQDGWSPAVPCLRKCYFPYLENGYNQNYGRKFVQGKSIDVACHPGYALPKAQTTVTCMENGWSPTPRCI"}, "B6": {"name": "fHbp Variant 1 (other)", "chain": "B3 chain"}},
  "key": {"fHbp Variant 2 [1]": {"biological_target": "fHbp Variant 2 (Neisseria meningitidis)", "assay": "SPR"}, "fHbp Variant 3 [2]": {"biological_target": "fHbp Variant 3 (Neisseria meningitidis)", "assay": "SPR"}, "fHbp variant 2 [3]": {"biological_target": "fHbp variant 2 (Neisseria meningitidis)", "assay": "SPR; sensorgram"}, "fHbp variant 3 [4]": {"biological_target": "fHbp variant 3 (Neisseria meningitidis)", "assay": "SPR; sensorgram"}, "[5]": {"biological_target": "T1, factor H binding protein (wild type, variant 1) (UniProt E6MV22 20-274)", "T1 chain": "B3 chain", "assay": "SPR"}, "[6]": {"biological_target": "T2, Neisseria gonorrhoeae fHbp homologue (NGO0033) (Neisseria gonorrhoeae)", "T2 chain": "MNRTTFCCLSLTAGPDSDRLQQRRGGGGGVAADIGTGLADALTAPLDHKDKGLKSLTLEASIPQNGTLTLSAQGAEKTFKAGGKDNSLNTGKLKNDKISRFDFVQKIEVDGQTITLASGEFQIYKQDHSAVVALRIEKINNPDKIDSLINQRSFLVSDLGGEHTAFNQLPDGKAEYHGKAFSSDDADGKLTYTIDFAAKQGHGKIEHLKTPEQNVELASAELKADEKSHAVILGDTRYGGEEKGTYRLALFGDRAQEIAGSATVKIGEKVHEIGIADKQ", "assay": "SPR"}, "[7]": {"biological_target": "T1, factor H binding protein (wild type, …)", "assay": "SPR"}, "[8]": {"biological_target": "T1, factor H binding protein (wild type, …)", "assay": "SPR; 402His"}, "6 7H 8": {"biological_target": "6 7H 8", "assay": "SPR; 402His"}, "6 7Y 8": {"biological_target": "6 7Y 8", "assay": "SPR; 402Tyr"}, "fH678 His 402": {"biological_target": "fH678 His 402", "assay": "SPR; 402His"}, "fH678 Tyr402": {"biological_target": "fH678 Tyr402", "assay": "SPR; 402Tyr"}, "FH67 N339E M340S": {"biological_target": "FH67 N339E M340S", "assay": "SPR"}},
  "data": [
    {"binder": "B1", "values": [
      {"measurement": "Kd", "setting": "fHbp Variant 2 [1]", "result": 2, "unit": "nM"},
      {"measurement": "Kd", "setting": "fHbp Variant 3 [2]", "result": 3, "unit": "nM"},
      {"measurement": "Kd", "setting": "fHbp variant 2 [3]", "result": 1.51, "unit": "nM"},
      {"measurement": "Kd", "setting": "fHbp variant 3 [4]", "result": 3.43, "unit": "nM"}
    ]},
    {"binder": "B2", "values": [
      {"measurement": "Kd", "setting": "[5]", "result": 5, "unit": "nM"},
      {"measurement": "Kd", "setting": "[6]", "result": 6000, "unit": "nM"},
      {"measurement": "Kd", "setting": "[7]", "result": 4, "unit": "nM"},
      {"measurement": "Kd", "setting": "[8]", "result": 4, "unit": "nM"}
    ]},
    {"binder": "B3", "values": [
      {"measurement": "Kd", "setting": "6 7H 8", "result": 6, "unit": "nM"},
      {"measurement": "Kd", "setting": "6 7Y 8", "result": 7, "unit": "nM"},
      {"measurement": "Kd", "setting": "fH678 His 402", "result": 5.7, "unit": "nM"},
      {"measurement": "Kd", "setting": "fH678 Tyr402", "result": 7.2, "unit": "nM"}
    ]},
    {"binder": "B4", "values": [
      {"measurement": "Kd", "setting": "fHbp Variant 2 [1]", "result": 2, "unit": "nM"},
      {"measurement": "Kd", "setting": "fHbp Variant 3 [2]", "result": 3, "unit": "nM"}
    ]},
    {"binder": "B5", "values": [
      {"measurement": "Kd", "setting": "[7]", "result": 6.1, "unit": "nM"},
      {"measurement": "Kd", "setting": "[8]", "result": 6, "unit": "nM"}
    ]},
    {"binder": "B6", "values": [
      {"measurement": "Kd", "setting": "FH67 N339E M340S", "result": 67, "unit": "nM"}
    ]}
  ]
}
